Data published in the nanobody polyreactivity screen of Harvey et al. (2022).

Test: yeast display, Sf9 membrane polyspecificity reagent, FACS + sequencing; frameworks hold sequencing errors
How it was run: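 Sorting gates, low and high (top ~1%), were placed on anti-HA fluorescence to track expression and on streptavidin fluorescence to track reagent binding. A clone's polyreactivity label is taken from the gate it came out of. The reagent was 10% biotinylated, detergent-solubilized Sf9 membrane, applied for 1 hour at 4 °C to galactose-induced yeast display cells.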

Sequence | polyreactivity (PSR sort gate)
QVQHVESGGGLVQAGGSLRLSCAASGRTFTRYTMGWYRQAPGKERELVAAIRFSGGSTYYADSVKGRFTISRDNAKNTVYLQMNSLKPEDTAVYYCAATGGWYKHWFDYWGQGTQVTVSS | low polyreactivity
QVQHVESGGGLVQAGGSLRLSCAASGRTFYRNAMGWYRPAPGKERELVAAISWSGGRTFYADSVKGRFTISRDNAKNTVYLQMNSLKPEDTAVYYCAKTYTTPGYYRYDYWGKGTQVTVSS | high polyreactivity
QVQHVESGGGLVQAGGSLRLSCAASGSIFGKYAMGWYRQAPGKERELVARISRSSGSTYYADSVKGRFTISRDNAKNTVYLQMNSLKPEDTAVYYCAARAYLNQARPKYGYSYDYWGQGTQVTVSS | high polyreactivity
QVQHVESGGGLVQAGGSLRLSCAASGSIFGTYAIGWYRQAPGKERELVATISYGDGSTYYADSVKGRFTISRDNAKNTVYLEMNSLKPEDTAVYYCNTGVYSSGGPLDYWGQGTQVTVSS | low polyreactivity
QVQHVESGGGLVQAGGSLRLSCAASGSIFNRNAMGWYRQAPGKERELVAAITRRGGSTYYADSVKVRFTISRDNAMNTVYLQMNSLKPEDTAVYYCAAATRKTEYDYWGQGSQVTVSS | high polyreactivity
QVQHVESGGGLVQAGGSLRLSCAASGSIFPLNAMGWSRQAPGQVSELVASISTGSSTYYADSVKGRFTISRDNAKNTVYLQMISLKPEDTAVYFCAVDRVLFSDFNRGYEYNYWGQGTQVTVSS | low polyreactivity
QVQHVESGGGLVQAGGSLRLSCAASGSIFPVYAMRWYRQAPGKEREFVASIRWRGGSTSYADSVKGRFTISRDNAKNTVYLQMNSLKPEDTAVYYCNAVYYSWAQSARFDYWGQGTQVTVSS | low polyreactivity
QVQHVESGGGLVQAGGSLRLSCAASGSIFSYYAMGWYRQPPGKERELVATISSGDSTYYADSVKGRFTISRDNAKKTVYLQMNSLKPEDTAVYYCARKPRIRYYPAPYDYWGQGTQVTVSS | low polyreactivity
QVQHVESGGGLVQAGGSLRLSCAASGSIIPSNVMGWYRQATGKEREFVAGITFRVGSTYYADSVKGRFTISLDNAKNTVYLQMNSLKPEDTAVYYCAALIRAVDRYTYRYGYWGQGTQVTVSS | high polyreactivity
QVQHVESGGGLVQAGGSLRLSCAASGSTFGPNAMGWYRQAPGKERELVAAINTRGGSTYYADSVKGRFTISRDNAKNTVYLQMNSLKPEDTAVYYCAAEYVVWYLDRFNYWGQGTQVTVSS | high polyreactivity
QVQHVESGGGLVQAGGSLRLSCAASGSTFHDYAMAWYRQATGKEREFVAAIRWRGGSTYYADSVKGRFTISRDNAKNTVYLQMNSLKPEDTAVYYCAADYLQFRKYVVHFDYLGQGTQVTVSS | low polyreactivity
QVQHVESGGGLVQAGGSLRLSCAASGSTFWNKAMGWYRQAPGKEREFVAAITRSTTSTYYADSVKGRFTISRDNAKNTVYLQMNSLKPEDTAVYFCAADTDIVLYDYWGQGTQVTVSS | low polyreactivity
QVQHVESGGGLVQAGGSLRLSCAASGSTFYGNAMGWYRQAPGKEREFVASINSRGGITYYADSVKGRFTISRDNAKNTVYLQMNSLKPEDTAVYYCNTRVLSFYHYPYDYWGQGTQVTVSS | high polyreactivity
QVQHVESGGGLVQAGGSLRLSCAASGSTFYINAKGWYRQAPGKEREFVASISWRGGSTYADSVKGRFTISRDNAKNTVYLQMNSLKPEDTAVYFCAAEFDVYSHHWITSYDYWGQGTQVTVSS | high polyreactivity
QVQHVESGGGLVQAGGSLRLSCAASGSTIYHYAMGWSRPAHGKERELVAAITTIGGRTYYADSVKGRFTISRDNAKNTVYLQMNSLKPEDTAVYYCAAGYRAWEPYGHYGYWGQGTQVTVSS | high polyreactivity
QVQHVESGGGLVQAGGSLRLSCAASGSTYNGYAMGWYRQATGKERELVAAISTSGGSTYYADSVKGRFTISRDNAKNTVYLQMNSLKPEDTAVYYCATYYGKRYMRRVDYWGQGTQVTVSS | high polyreactivity
QVQHVESGGGLVQAGGSLRLSCAASGYNFPYNPMGWYRQATGKEREFVAASTSSGGSTYYADSVKGRFTISRDNAKNTVYLQMNSLKPEDTAVYYCARVPLHRYGYWGQGTQVNVSS | high polyreactivity
QVQHVESGGGLVQAGGSLRLSCAASRLTFTRNAMGWYRQAPGKERELVAAITRSSGSTYYADSVKGRFTISRDNAKNTVYLQMNSLKPEDTAVYYCNARRAAYYHRARELDYWGQGTQVTVSS | high polyreactivity
QVQHVESGGGLVQAGGSLRLSCAATGRIFTAYYAMGWYRQAPGKERELVASISSSGTSTYADSVKGRFTISRDNAKNTVYLQMNSLKPDDTAVYYCATRKLRTRRYDYGYWGQGTQVTVSS | low polyreactivity
QVQHVESGGGLVQAGGSLRLSCAPSGITFYTYTMGWYRQAHGKERQLVAVISASGARTYYADSVKGRFTISRDNAKNTVYLQMNSLKPEDTAVYYCAARSYFISPWRFDYWGQGTQVTVSS | high polyreactivity
QVQHVESGGGLVQAGGSLRLSCDASGSTFPYYTMGWYRQAPGKERELVAAITWRGGRTYYADSVKGRFTISRDNAKNTVYLQMNSLKPEDTAVYYCATGYSYRGYSALSGYDYWGQGTQVTVSS | high polyreactivity
QVQHVESGGGLVQAGGSLRLSCPASGIIFDYYAMGWYRQAPGKERELVATITSGGSTNYADSVKGRFTISRDNAKNTVYLQMNSLKPEDTAVYYCAARTYWFPDIYPGLGMDYWGQGTQVTVSS | low polyreactivity

Sequence | polyreactivity (PSR sort gate)
QVQHVESGGGLVQAGGSLRLSSAASGFTFYGYAMGWYRPARGNERELVATIRRSTGSTYYADSVKGRFTISRDNAKYSVYLQMNSLKPDDTAVYYCATRVWFPITSYDYWGQGTQVTVSS | low polyreactivity
QVQHVESGGGLVQAGGSLRLSSAASGRIFPINAMGWYRQAPGKERELVAAISYSGGSTYYADSVKGRFTISRDNAKNTVYLQMNSLKPEDTAVFYCNARYPYSYYHRYYYWGQGTQVTVSS | high polyreactivity
QVQHVESGGGLVQAGGSNRLSCASSGSTFPGNAMGWYRQAPGKERELVARINDGADTNYADSVKGRFTISRDNAKNTVFLQMNSLKPEDTAVYYCAKPFYDGRTHFVSWGQGTQVTVSS | low polyreactivity
QVQHVESGGGLVQAGGSRRLSCAASGRTFREYAMGWYRQAPGKERELVAAISDSGDSTYYADSVKGRFTISRDNAKNTVNLQMNSLKPVHTAVYYCAADYYDYEYDYWGQGTQVTVSS | low polyreactivity
QVQHVESGGGLVQAGGTLRLSCASSGRTLYYYTMGWYRQAPGKESELVAAISKSGGSTYYADSVKGRFTISRDNAKNTVYLQMNSLKPEDTAVFYCAADRSAYSRGYVRYIYWGQGTKVTVSS | high polyreactivity
QVQHVESGGGLVQAGRSLRLSCAASGFIFRYSAMGWYRPAPGKERELVATITGRGGSTYYADSVKGRFTISRDNAKNTVYLQMNSLIPEDTAVYYCAARARYSPAPYDYWGQGTQVTVSS | high polyreactivity
QVQHVESGGGLVQARGSLRLSCAASGLTFNTYAMGWYRQAPGQDRELVAAISRRGSRTYYADSVKGRFTISRDNAKNTVYLQMNSLNREDTAVYYCAAPRASGYYWGQGTQVTVSS | high polyreactivity
QVQHVESGGGLVQAVVSLRLSCAATGRIISYNAMGWYRQAPGKEWELVAAISWVGGSTYYADSVKGRFTISRDIAKNTVYLQMNCLKPEDTAVYYCAKGWYRIKRNDYWGQGTQVTVSS | low polyreactivity
QVQHVESGGGLVQPGGSHRLSCAASGSTFQIYAMRWYRQAPGKVRELVAAITSSSSTNYADSVKGRFTISRDNAKNTDYLQMNSLKPEDPAVYYCAADVSRRCNWYDYWGQGTQVTVSS | low polyreactivity
QVQHVESGGRLVQAGGSLRLSCAASGFIFPNYAMGWYRQAPGKERELVAVISRSGGSTYYADSVKGRFTISRDNAKNTVYLQMNSLKPEDTAVYYCNAVARGYGYDYWGQGTQVTVSS | high polyreactivity
QVQHVESGGRLVQAGGSLRLSCAPSGFIFSKYAMGWYRQAPGKERELVAAITRSGGRTYYADSVKGRFTISRDNAKNTVYLQMNSLKPEDTAVYYCAASWLYFGRDYWGQGTQVTVSS | high polyreactivity
QVQHVESGGRLVQAGGSLRLSWAASGRIFRVNAMGRYRQAPGKERELVAAINFSGTSTYFADSVKGRFTISRDNAKNTVYLQMNSLKPDDTAVYYCNALTTSNSGRFYYWGQGTQVTVSS | low polyreactivity
QVQHVESGGVLVQAGGSLRLSCAASGSIFYPNAMGWYRQAPGKERELVAAISSSGGTNYADSVKGRFTISRDNAKNTVYLQMNSLKPEDTAVYYCNARDKVRYRFSRMDYWGQGTQVTVSS | low polyreactivity
QVQHVESGRGLVQAGGSLRLSCAASGIIFLYYAMGWYREAPGKVRELVAAITGSGGTTYYADSVKGRFTISRDNAMNTVYLQMNSLKPEDTAVYYCATPPPEVWQRWYREYDYWGQGTQVTVSS | low polyreactivity
QVQHVESGRGLVQAGGSLRLSCPASGSTFSYYAMGWYRQAPGKERELVASISSTTGSTYYADSVKGRFTISRDNAKNTVYVKMNSVKPEDTAVYYCAADIPPGGGDYWGQGSQVTVSS | low polyreactivity
QVQHVESGRGLVQAGRSLRLSCAASGRIFQRYAMGWYRQAPGKERELVAVITKRGGNTYYADSVKGRFTISRDNAKNTVYLQMNSLKPEDTAVYYCASRSGRSTGDYWGQGTQVTVSS | high polyreactivity
QVQHVESGVGLVQAGGSLRLSCAASGSIFVHNAMGWYRQAPGKERELVAGISARAASTYYADSVKGRFTISRDNAKNTVYLQMNSLKPEDTAVYYCAADRIPGYRVYGFYYWGQGTQVTVSS | low polyreactivity
QVQHVESRGGLVQAGGSLRLSCAASGFTFYTNVMGWSRQAPGKERELVAAINSGGSTNYADSVKGRFTISRDNAKNTVYLQMNSLKAEDTAVYYCNKRGTEIGYDYWGQGTQVTVSS | low polyreactivity
QVQHVESRGGLVQAGGSLRLSCAASGSTFCRYAMGWYRKAPGKEREFVARITYSSGRTYYADSVKGRFTISRDNAKNTVYLQMNSLKPDDTAVYYCAAGDYTRGPCGDYWGQGTQVTVSS | high polyreactivity
QVQHVESRGGLVQSGGSLRLSCAASGSIFSYYDLGWYRQAPGKERELVASISSGGSTYYADSVKGRFTISRDNAKNTVYLQMNSLKPEDTAVYYCAAVSRWLYWEDDYWGQGTQVTVSS | low polyreactivity
QVQHVESVGGIVQAGGSLRLICAASGFIFVGYAMGWYRQAPGKERELVAAISTSGGRTYYADSVKGRFTISRDNAKNTVYLQLNSLKPEDTAVYYCAAKRPGCIQYSYYYWGQGTQVTVSS | high polyreactivity
